Laboratory results published in article PMC8280106 (2021).

B1: murine CD147^ECD (mCD147^ECD) (domain or fragment)
chain: AAGTIQTSVQEVNSKTQLTCSLNSSGVDIVGHRWMRGGKVLQEDTLPDLHTKYIVDADDRSGEYSCIFLPEPVGRSEINVEGPPRIKVGKKSEHSSEGELAKLVCKSDASYPPITDWFWFKTSDTGEEEAITNSTEANGKYVVVSTPEKSQLTISNLDVNVDPGTYVCNATNAQGTTRETISLRVRSR

How the values were obtained:
[1] = target: Trefoil factor 3 (TFF3), recombinant mature form (residues 22-80) (human); test: SPR; Biacore T200; TFF peptides immobilised on a CM5 chip (10 mM sodium acetate pH 4.0); purified proteins as analytes at 30 µL/min, 2 min association; multiple cycle kinetics, 1:1 model
[2] = target: T1, murine TFF3 (mTFF3) (mouse, UniProt Q62395 23-81); test: SPR
T1 chain: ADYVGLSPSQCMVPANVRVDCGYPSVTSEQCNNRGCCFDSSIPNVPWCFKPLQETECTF

Molecule | Kd [1] | Kd [2]
extracellular domain of CD147 (CD147^ECD) (domain or fragment) | 2030 nM | –
B1 | – | 2510 nM
